Source: the supplement of paper PMC7877785
± gives the uncertainty stated by the source.

Test: self-splicing fitness, log relative to wild type (ln ratio); higher = more splicing; Tetrahymena group I intron in knt gene, E. coli kanamycin selection, DiMSum; sequences stand for … in CUCUCU…GGAGGGAAAAGUUAUCAGGCAUGCACCUGGUAGCUAGUCUUUAAACCAAUAGAUUGCAUCGGUUUAAAAGGCAAGACCGUCAAAUUGCGGGAAAGGGGUCAACAGCCGUUCAGUACCAAGUCUCAGGGGAAACUUUGAGAUGGCCUUGCAAAGGGUAUGGUAAUAAGCUGACGGACAUGGUCCUAACCACGCAGCCAAGUCCUAAGUCAACAGAUCUUCUGUUGAUAUGGAUGCAGUUCACAGACUAAAUGUCGGUCGGGGAAGAUGUAUUCUUCUCAUAAGAUAUAGUCGGACCUCUCCUUAAUGGGAGCUAGCGGAUGAAGUGAUGCAACACUGGAGCCGCUGGGAACUAAUUUGUAUGCGAAAGUAUAUUGAUUAGUUUUGGAGUACUCGUGGUCG
In short: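 A randomised library covering all eight P1ex-region intron nucleotides was built with the intron in the knt kanamycin-resistance gene on pET-22b(+) and held in E. coli BL21(DE3). Cells were grown overnight at 37°C or 30°C on LB agar, with or without 25 μg/mL kanamycin, plus 100 μg/mL carbenicillin, 50 μM IPTG and 0.2% rhamnose, and pooled colonies were amplicon-sequenced on an Illumina HiSeq 2500. DiMSum fitness is the error-weighted combination of wild-type-normalised replicate fold changes, kanamycin versus none.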

Sequence	self-splicing fitness (ln) (30 °C)	self-splicing fitness (ln) (37 °C)
AGCCAGCAAUAUUACGGUGU	-1.99 ± 0.084	-2.51 ± 0.12
AGCCAGCAAUAUUACGUAGC	-3.01 ± 0.14	-2.05 ± 0.15
AGCCAGCAAUAUUACGUCAC	–	-2.15 ± 0.44
AGCCAGCAAUAUUACGUGCU	-3.62 ± 0.18	-2.06 ± 0.21
AGCCAGCAAUAUUACGUUUA	-2.7 ± 0.35	-2.48 ± 0.38
AGCGAGCAAUAUUACGAAGG	-4.58 ± 0.26	-2.09 ± 0.15
AGCGAGCAAUAUUACGAGUA	-1.68 ± 0.26	-1.18 ± 0.29
AGCGAGCAAUAUUACGCAGA	-2.67 ± 0.24	-2.88 ± 0.24
AGCGAGCAAUAUUACGCGAC	-2.33 ± 0.27	–
AGCGAGCAAUAUUACGCGAU	-1.78 ± 0.25	-2.2 ± 0.36
AGCGAGCAAUAUUACGCGGU	–	-2.53 ± 0.32
AGCGAGCAAUAUUACGCUUA	-3.13 ± 0.27	0.422 ± 0.17
AGCGAGCAAUAUUACGGACA	-2.53 ± 0.37	-2.94 ± 0.34
AGCGAGCAAUAUUACGGACG	–	-1.9 ± 0.36
AGCGAGCAAUAUUACGGCUU	-2.59 ± 0.12	-2.02 ± 0.21
AGCGAGCAAUAUUACGGGUC	-2.01 ± 0.13	-2.66 ± 0.25
AGCGAGCAAUAUUACGGUAU	-3.18 ± 0.16	-2.54 ± 0.22
AGCGAGCAAUAUUACGGUGG	-2.67 ± 0.15	-2.11 ± 0.25
AGCGAGCAAUAUUACGUAAC	-3.79 ± 0.29	-1.46 ± 0.24
AGCGAGCAAUAUUACGUAGA	-3.17 ± 0.24	-2.85 ± 0.29
AGCGAGCAAUAUUACGUGAG	-4.49 ± 0.27	-2.79 ± 0.19
AGCGAGCAAUAUUACGUGCC	-3.37 ± 0.41	-0.439 ± 0.22
AGCGAGCAAUAUUACGUGGG	-2.35 ± 0.27	-3.19 ± 0.35
AGCGAGCAAUAUUACGUGUC	-3.1 ± 0.24	-2.85 ± 0.22
AGCGAGCAAUAUUACGUUUU	-3.47 ± 0.28	-1.66 ± 0.22

Sequence	self-splicing fitness (ln) (30 °C)	self-splicing fitness (ln) (37 °C)
AGCUAGCAAUAUUACGAAAG	-3.5 ± 0.19	-2.77 ± 0.25
AGCUAGCAAUAUUACGAACA	-2.24 ± 0.23	-0.832 ± 0.2
AGCUAGCAAUAUUACGAAUG	-2.09 ± 0.17	-2.27 ± 0.29
AGCUAGCAAUAUUACGACCU	0.703 ± 0.17	-0.166 ± 0.18
AGCUAGCAAUAUUACGACUG	-0.901 ± 0.072	-0.941 ± 0.12
AGCUAGCAAUAUUACGCAAC	-3.6 ± 0.35	-1.86 ± 0.32
AGCUAGCAAUAUUACGCACC	-0.833 ± 0.15	-0.409 ± 0.19
AGCUAGCAAUAUUACGCACU	-1.19 ± 0.1	-0.466 ± 0.13
AGCUAGCAAUAUUACGCCAC	-3.18 ± 0.32	-2.45 ± 0.42
AGCUAGCAAUAUUACGCGGU	-4.02 ± 0.27	-1.71 ± 0.13
AGCUAGCAAUAUUACGCGUU	-2.62 ± 0.091	-2.11 ± 0.12
AGCUAGCAAUAUUACGGAAC	-2.7 ± 0.2	-2.38 ± 0.24
AGCUAGCAAUAUUACGUCCG	-1.65 ± 0.23	-0.915 ± 0.21
AGCUAGCAAUAUUACGUGGA	-3.53 ± 0.2	-2.04 ± 0.14
AGCUAGCAAUAUUACGUGUG	-2.2 ± 0.06	-1.7 ± 0.079
AGGAAGCAAUAUUACGACUC	-0.644 ± 0.3	-0.886 ± 0.45
AGGAAGCAAUAUUACGAGGU	-3.85 ± 0.34	-2.97 ± 0.24
AGGAAGCAAUAUUACGAUUG	-3.96 ± 0.36	-3.3 ± 0.28
AGGAAGCAAUAUUACGCACC	-1.52 ± 0.16	0.0459 ± 0.16
AGGAAGCAAUAUUACGCCCA	-0.363 ± 0.42	1.47 ± 0.39
AGGAAGCAAUAUUACGCGUA	-1.87 ± 0.15	-0.669 ± 0.11
AGGAAGCAAUAUUACGCGUU	-2.55 ± 0.17	-1.01 ± 0.17
AGGAAGCAAUAUUACGGAUA	–	-2.01 ± 0.21
AGGAAGCAAUAUUACGGCGU	-0.156 ± 0.1	-0.118 ± 0.11
AGGAAGCAAUAUUACGGGAA	-2.67 ± 0.25	-2.08 ± 0.26

Sequence	self-splicing fitness (ln) (30 °C)	self-splicing fitness (ln) (37 °C)
AGGAAGCAAUAUUACGGGGA	-2.97 ± 0.2	-2.38 ± 0.16
AGGAAGCAAUAUUACGGUAC	-3.99 ± 0.36	-3.03 ± 0.25
AGGAAGCAAUAUUACGGUCC	-1.54 ± 0.23	-1.05 ± 0.4
AGGAAGCAAUAUUACGGUCU	-0.784 ± 0.079	0.265 ± 0.11
AGGAAGCAAUAUUACGGUGC	-3.36 ± 0.21	-2.51 ± 0.2
AGGAAGCAAUAUUACGGUUA	-0.766 ± 0.1	-0.654 ± 0.1
AGGAAGCAAUAUUACGUAAC	-3.65 ± 0.3	-2.18 ± 0.42
AGGAAGCAAUAUUACGUAAG	-1.39 ± 0.11	-2.01 ± 0.17
AGGAAGCAAUAUUACGUCUC	-2.91 ± 0.18	-1.48 ± 0.21
AGGAAGCAAUAUUACGUGCG	-1.01 ± 0.1	-1.04 ± 0.13
AGGAAGCAAUAUUACGUUAG	-2.95 ± 0.21	-3.24 ± 0.29
AGGAAGCAAUAUUACGUUGU	-3.98 ± 0.18	-2.82 ± 0.15
AGGCAGCAAUAUUACGACAC	-1.75 ± 0.18	-0.221 ± 0.18
AGGCAGCAAUAUUACGAGAA	-3.3 ± 0.41	-2.09 ± 0.36
AGGCAGCAAUAUUACGAUGU	-2.41 ± 0.094	-0.487 ± 0.1
AGGCAGCAAUAUUACGCAAC	-0.42 ± 0.21	-1.41 ± 0.34
AGGCAGCAAUAUUACGCACC	-0.268 ± 0.1	-0.0601 ± 0.15
AGGCAGCAAUAUUACGCACG	-0.754 ± 0.069	-0.342 ± 0.11
AGGCAGCAAUAUUACGCAGU	-3.36 ± 0.2	-1.55 ± 0.19
AGGCAGCAAUAUUACGCCAU	-2.27 ± 0.25	-1.39 ± 0.3
AGGCAGCAAUAUUACGCUAG	-3.53 ± 0.25	-3.04 ± 0.27
AGGCAGCAAUAUUACGCUCG	-1.75 ± 0.091	-0.442 ± 0.12
AGGCAGCAAUAUUACGGAUG	-2.3 ± 0.1	-2.58 ± 0.21
AGGCAGCAAUAUUACGGGCG	-0.287 ± 0.097	-0.172 ± 0.11
AGGCAGCAAUAUUACGGGCU	-0.928 ± 0.071	-1.51 ± 0.11

Sequence	self-splicing fitness (ln) (30 °C)	self-splicing fitness (ln) (37 °C)
AGGCAGCAAUAUUACGGGUG	-3.64 ± 0.15	-2.29 ± 0.12
AGGCAGCAAUAUUACGGUUG	-3.28 ± 0.18	-1.46 ± 0.17
AGGCAGCAAUAUUACGGUUU	-0.696 ± 0.043	-0.371 ± 0.062
AGGCAGCAAUAUUACGUACG	-1.22 ± 0.074	0.303 ± 0.1
AGGCAGCAAUAUUACGUUGG	-3.79 ± 0.2	-1.45 ± 0.11
AGGCAGCAAUAUUACGUUUA	-1.33 ± 0.072	-0.496 ± 0.08
AGGGAGCAAUAUUACGAAUG	-3.27 ± 0.3	-2.38 ± 0.39
AGGGAGCAAUAUUACGACCG	-1.92 ± 0.35	-0.586 ± 0.33
AGGGAGCAAUAUUACGACGU	-2.14 ± 0.23	-1.63 ± 0.19
AGGGAGCAAUAUUACGAUAU	–	-1.88 ± 0.47
AGGGAGCAAUAUUACGAUCA	–	-1.5 ± 0.4
AGGGAGCAAUAUUACGCAGA	–	-3.27 ± 0.43
AGGGAGCAAUAUUACGCGAG	-3.35 ± 0.19	-2.47 ± 0.19
AGGGAGCAAUAUUACGCGUA	-3.21 ± 0.31	-3.16 ± 0.23
AGGGAGCAAUAUUACGCUUA	-3.44 ± 0.24	-1.62 ± 0.21
AGGGAGCAAUAUUACGGAAA	-2.4 ± 0.34	-2.34 ± 0.42
AGGGAGCAAUAUUACGGACU	-1.03 ± 0.16	0.483 ± 0.22
AGGGAGCAAUAUUACGGGUG	-4.12 ± 0.2	-2.54 ± 0.29
AGGGAGCAAUAUUACGGUGU	-4.33 ± 0.22	-2.37 ± 0.18
AGGGAGCAAUAUUACGUAAC	-2.23 ± 0.28	-2.99 ± 0.29
AGGGAGCAAUAUUACGUCUA	-2.54 ± 0.21	-2.26 ± 0.21
AGGGAGCAAUAUUACGUGAC	-2.06 ± 0.3	-1.15 ± 0.39
